In PMC11401937 (Nature Communications, 2024):

Biological target: the molecule itself
Test: cryo-EM structure

B1: Human Best1 protein purified for cryo-EM (GABA-bound pentamer) (natural protein)
chain: TITYTSQVANARLGSFSRLLLCWRGSIYKLLYGEFLIFLLCYYIIRFIYRLALTEEQQLMFEKLTLYCDSYIQLIPISFVLGFYVTLVVTRWWNQYENLPWPDRLMSLVSGFVEGKDEQGRLLRRTLIRYANLGNVLILRSVSTAVYKRFPSAQHLVQAGFMTPAEHKQLEKLSLPHNMFWVPWVWFANLSMKAWLGGRIRDPILLQSLLNEMNTLRTQCGHLYAYDWISIPLVYTQVVTVAVYSFFLTCLVGRQFLNPAKAYPGHELDLVVPVFTFLQFFFYVGWLKVAEQLINPFGEDDDDFETNWIVDRNLQVSLLAVDEMHQDLPRMEPDMYWNKPEPQPPYTAASAQFRRASFMGSTFNISLNKEEMEFQPNQEDEEDAHAGIIGRFLGLQSHDHHPPRANSRTKLLWPKRESLLHEGLPKNHKAAKQNVRGQEDNKAWKLKAVDAFKSAPLYQRPGYYSAPQTPLSPTPMFFPLEPSAPSKLHSVTGIDTKDKSLKTVSSGAKKSFELLSESDGALMEHPEVSQVRRKTVEFNLTDMPEIPENHLKEPLEQSPTNIHTTLKDHMDPYWALENRDEAHS
- stoichiometry N: 5
